From PMC5927468, “A noncanonical role for dynamin-1 in regulating early stages of clathrin-mediated endocytosis in non-neuronal cells” (PLoS Biology, 2018)

Experiments:
Dyn1a^WT-eGFP = biological target: T1, Dyn1a^WT-eGFP (UniProt Q05193 1-864); assay: co-IP; GFP-nAb agarose, 0.5 mg A549 post-nuclear fraction, 2 h at 4 °C; beads washed with buffer 3 (0.5% Triton X-100, 25 mM HEPES, 150 mM KCl, 1 mM MgCl2, 2 mM EGTA, pH 7.4); immunoblot; conditions: partners not purified
T1 construct: dynamin-1 cDNA, C-terminal splice variant "a" (Dyn1a), in the retroviral vector pMIEG; also called Dyn1a-eGFP; Dyn1-eGFP; source: A549 Dyn1^KO cells, retroviral transduction, in lysate (post-nuclear fraction); not shown: eGFP, C-terminal, kept
T1 sequence (looked up): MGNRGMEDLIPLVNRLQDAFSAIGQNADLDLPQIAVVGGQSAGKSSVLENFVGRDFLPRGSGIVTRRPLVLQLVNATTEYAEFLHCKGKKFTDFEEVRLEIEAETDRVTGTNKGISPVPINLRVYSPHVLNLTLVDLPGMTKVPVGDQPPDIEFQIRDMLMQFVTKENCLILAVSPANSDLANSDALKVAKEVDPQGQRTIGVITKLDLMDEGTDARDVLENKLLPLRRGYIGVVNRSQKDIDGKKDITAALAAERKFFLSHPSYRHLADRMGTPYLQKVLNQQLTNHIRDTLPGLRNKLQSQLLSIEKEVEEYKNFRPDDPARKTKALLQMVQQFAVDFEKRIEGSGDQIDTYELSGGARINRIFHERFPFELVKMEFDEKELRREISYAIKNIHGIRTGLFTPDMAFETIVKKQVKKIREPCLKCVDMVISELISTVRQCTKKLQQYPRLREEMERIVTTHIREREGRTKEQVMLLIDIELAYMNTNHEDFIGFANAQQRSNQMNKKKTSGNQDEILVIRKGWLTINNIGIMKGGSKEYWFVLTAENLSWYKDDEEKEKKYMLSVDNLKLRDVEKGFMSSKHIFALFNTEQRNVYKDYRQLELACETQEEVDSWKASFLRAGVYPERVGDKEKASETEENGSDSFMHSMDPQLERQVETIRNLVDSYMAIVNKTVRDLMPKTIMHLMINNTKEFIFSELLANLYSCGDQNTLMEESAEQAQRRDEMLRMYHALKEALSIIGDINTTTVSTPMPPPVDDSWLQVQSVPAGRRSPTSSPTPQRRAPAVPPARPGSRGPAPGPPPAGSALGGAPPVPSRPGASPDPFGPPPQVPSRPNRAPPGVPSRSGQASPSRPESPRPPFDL

Dyn1a^S774/8A-eGFP = biological target: T2, Dyn1a^S774/8A-eGFP (UniProt Q05193 1-864, S774/8A | S774/8A); assay: as above; conditions: partners not purified
T2 construct: dynamin-1 cDNA, C-terminal splice variant "a" (Dyn1a), in the retroviral vector pMIEG, with S774 and S778 changed to alanine; also called Dyn1^S774/8A-eGFP; Dyn1^S774/8A; source: A549 Dyn1^KO cells, retroviral transduction, in lysate (post-nuclear fraction); not shown: eGFP, C-terminal, kept
T2 sequence (looked up): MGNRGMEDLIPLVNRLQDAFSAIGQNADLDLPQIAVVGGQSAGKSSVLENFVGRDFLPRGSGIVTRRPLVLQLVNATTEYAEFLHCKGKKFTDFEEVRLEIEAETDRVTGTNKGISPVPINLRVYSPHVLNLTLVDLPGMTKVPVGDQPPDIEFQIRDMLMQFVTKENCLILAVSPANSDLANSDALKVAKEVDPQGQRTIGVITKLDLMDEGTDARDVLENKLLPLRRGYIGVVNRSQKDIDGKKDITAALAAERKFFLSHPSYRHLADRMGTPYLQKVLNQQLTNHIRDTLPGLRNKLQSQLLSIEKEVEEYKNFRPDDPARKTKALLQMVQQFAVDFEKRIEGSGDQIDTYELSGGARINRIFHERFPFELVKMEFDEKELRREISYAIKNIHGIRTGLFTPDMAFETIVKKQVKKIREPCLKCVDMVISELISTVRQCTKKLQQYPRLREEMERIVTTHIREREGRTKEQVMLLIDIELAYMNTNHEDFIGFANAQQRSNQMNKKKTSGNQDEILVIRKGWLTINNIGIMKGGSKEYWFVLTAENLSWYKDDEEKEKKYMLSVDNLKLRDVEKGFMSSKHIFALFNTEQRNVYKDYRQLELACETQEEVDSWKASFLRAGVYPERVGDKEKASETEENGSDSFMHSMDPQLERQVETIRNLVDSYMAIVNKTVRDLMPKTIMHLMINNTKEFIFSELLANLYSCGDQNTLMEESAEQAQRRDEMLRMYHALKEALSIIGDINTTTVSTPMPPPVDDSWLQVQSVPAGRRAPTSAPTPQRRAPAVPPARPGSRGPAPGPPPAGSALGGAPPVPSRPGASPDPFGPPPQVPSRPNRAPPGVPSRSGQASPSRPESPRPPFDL

B1: sorting nexin 9, endogenous in A549 cells (natural protein, human (endogenous in A549), UniProt Q9Y5X1 1-595, looked up)
chain: MATKARVMYDFAAEPGNNELTVNEGEIITITNPDVGGGWLEGRNIKGERGLVPTDYVEILPSDGKDQFSCGNSVADQAFLDSLSASTAQASSSAASNNHQVGSGNDPWSAWSASKSGNWESSEGWGAQPEGAGAQRNTNTPNNWDTAFGHPQAYQGPATGDDDDWDEDWDGPKSSSYFKDSESADAGGAQRGNSRASSSSMKIPLNKFPGFAKPGTEQYLLAKQLAKPKEKIPIIVGDYGPMWVYPTSTFDCVVADPRKGSKMYGLKSYIEYQLTPTNTNRSVNHRYKHFDWLYERLLVKFGSAIPIPSLPDKQVTGRFEEEFIKMRMERLQAWMTRMCRHPVISESEVFQQFLNFRDEKEWKTGKRKAERDELAGVMIFSTMEPEAPDLDLVEIEQKCEAVGKFTKAMDDGVKELLTVGQEHWKRCTGPLPKEYQKIGKALQSLATVFSSSGYQGETDLNDAITEAGKTYEEIASLVAEQPKKDLHFLMECNHEYKGFLGCFPDIIGTHKGAIEKVKESDKLVATSKITLQDKQNMVKRVSIMSYALQAEMNHFHSNRIYDYNSVIRLYLEQQVQFYETIAEKLRQALSRFPVM
notes: sorting nexin 9, endogenous; also called SNX9; source: endogenous, A549 (Dyn1^KO or Dyn2^KO, reconstituted) lysate
ratio of SNX9 binding to Dyn1 versus Dyn2 (Dyn1a^WT-eGFP): 1.7
ratio of SNX9 binding to Dyn1^S774/8A versus Dyn1^WT (Dyn1a^S774/8A-eGFP): 3.6
